Measured values: PMC9234269

molecular target: Aβ1–42 fibrils (sonicated, immobilized) (human) (UniProt P05067); experiment: ELISA; sonicated Aβ1–42 fibrils coated on a high binding plate (50 μl of 2.5 μg/ml, carbonate buffer pH 9.6, overnight 8°C); blocked with 2% BSA in PBS pH 7.4; chaperones in 2% BSA up to 5,000 nM, 2 h at room temperature; detected with polyclonal anti-6×His; bound amount estimated from standard curves of chaperone deposited directly (0–100 nM)

First: Drosophila HSP10 (natural protein)
Second: GroES (from UniProt P0A6F9 1-97) (natural protein)
The stoichiometry N (Aβ1–42 monomers per chaperone molecule) of the first is lower: 70 for the first, 1400 for the second.

For “Human HSP10 (from UniProt P61604 3-102) (natural protein)”, the stoichiometry N (Aβ1–42 monomers per chaperone molecule) was 800.
